Assay results as given in publication PMC4013287 (Arteriosclerosis, thrombosis, and vascular biology, 2013).

Assays:
von Willebrand factor = von Willebrand factor (UniProt P04275 764-2813); assay: ELISA
type 1 collagen = type 1 collagen (UniProt P02452); assay: ELISA
Chain of type 1 collagen (P02452 23-1218, chain 1 of 2): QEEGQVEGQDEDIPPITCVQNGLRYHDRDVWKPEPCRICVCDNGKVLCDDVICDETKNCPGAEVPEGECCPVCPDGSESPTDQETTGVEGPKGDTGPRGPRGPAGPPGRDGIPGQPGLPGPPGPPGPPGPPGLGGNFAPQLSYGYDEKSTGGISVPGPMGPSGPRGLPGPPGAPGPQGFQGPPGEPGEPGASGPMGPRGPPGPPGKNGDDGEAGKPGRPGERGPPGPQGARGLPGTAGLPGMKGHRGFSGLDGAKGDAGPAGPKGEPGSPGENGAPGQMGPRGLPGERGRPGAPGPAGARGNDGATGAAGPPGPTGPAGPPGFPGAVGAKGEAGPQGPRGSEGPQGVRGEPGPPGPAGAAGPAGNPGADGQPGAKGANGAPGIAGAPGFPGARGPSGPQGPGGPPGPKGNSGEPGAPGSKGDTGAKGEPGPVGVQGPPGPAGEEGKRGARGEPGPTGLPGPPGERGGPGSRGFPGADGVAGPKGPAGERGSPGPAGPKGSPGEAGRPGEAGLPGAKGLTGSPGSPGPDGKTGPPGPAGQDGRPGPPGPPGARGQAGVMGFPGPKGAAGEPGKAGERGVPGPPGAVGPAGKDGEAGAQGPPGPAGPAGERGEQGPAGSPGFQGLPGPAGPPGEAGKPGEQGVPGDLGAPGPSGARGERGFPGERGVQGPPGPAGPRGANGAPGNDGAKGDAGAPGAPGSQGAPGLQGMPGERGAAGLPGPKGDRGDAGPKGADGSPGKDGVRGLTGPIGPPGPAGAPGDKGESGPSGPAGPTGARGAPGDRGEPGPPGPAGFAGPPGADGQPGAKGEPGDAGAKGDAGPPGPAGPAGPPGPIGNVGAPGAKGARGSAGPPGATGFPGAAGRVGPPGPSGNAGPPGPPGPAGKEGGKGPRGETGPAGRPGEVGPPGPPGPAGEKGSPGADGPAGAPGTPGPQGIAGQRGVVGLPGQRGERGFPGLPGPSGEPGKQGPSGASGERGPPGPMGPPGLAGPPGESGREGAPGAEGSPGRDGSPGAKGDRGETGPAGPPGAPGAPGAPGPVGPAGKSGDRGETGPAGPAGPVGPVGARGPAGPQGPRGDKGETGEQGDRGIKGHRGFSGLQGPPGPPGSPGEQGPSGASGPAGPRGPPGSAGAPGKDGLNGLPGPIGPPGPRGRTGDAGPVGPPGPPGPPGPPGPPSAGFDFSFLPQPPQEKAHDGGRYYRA
Chain of type 1 collagen (P08123 80-1119, chain 2 of 2, further chain): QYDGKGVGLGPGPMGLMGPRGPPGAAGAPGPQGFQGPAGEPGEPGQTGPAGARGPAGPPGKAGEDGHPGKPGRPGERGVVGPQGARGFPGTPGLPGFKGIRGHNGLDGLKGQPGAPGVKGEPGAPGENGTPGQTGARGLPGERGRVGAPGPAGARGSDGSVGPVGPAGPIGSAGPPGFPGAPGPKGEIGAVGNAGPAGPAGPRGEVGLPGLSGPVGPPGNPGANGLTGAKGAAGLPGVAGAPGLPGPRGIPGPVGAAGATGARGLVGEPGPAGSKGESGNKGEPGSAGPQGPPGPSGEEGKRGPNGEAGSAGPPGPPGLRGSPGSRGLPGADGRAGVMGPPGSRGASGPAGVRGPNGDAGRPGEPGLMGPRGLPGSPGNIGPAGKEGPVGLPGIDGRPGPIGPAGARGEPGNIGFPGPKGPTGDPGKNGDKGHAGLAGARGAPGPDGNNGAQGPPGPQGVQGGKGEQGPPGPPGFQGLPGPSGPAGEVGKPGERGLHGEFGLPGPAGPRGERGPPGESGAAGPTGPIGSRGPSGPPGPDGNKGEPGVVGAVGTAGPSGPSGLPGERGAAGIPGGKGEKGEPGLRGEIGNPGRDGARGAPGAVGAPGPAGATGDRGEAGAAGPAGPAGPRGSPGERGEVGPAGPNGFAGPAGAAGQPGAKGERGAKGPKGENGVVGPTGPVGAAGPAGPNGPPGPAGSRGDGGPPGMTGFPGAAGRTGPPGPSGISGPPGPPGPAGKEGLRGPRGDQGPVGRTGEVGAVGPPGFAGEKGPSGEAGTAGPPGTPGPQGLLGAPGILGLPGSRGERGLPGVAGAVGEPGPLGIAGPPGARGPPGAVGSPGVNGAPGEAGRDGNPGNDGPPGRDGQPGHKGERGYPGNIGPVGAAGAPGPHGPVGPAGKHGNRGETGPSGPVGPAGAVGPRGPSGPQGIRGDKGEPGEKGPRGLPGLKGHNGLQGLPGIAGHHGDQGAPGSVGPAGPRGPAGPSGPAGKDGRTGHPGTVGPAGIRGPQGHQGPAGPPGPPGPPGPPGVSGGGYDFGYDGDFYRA

Kd (von Willebrand factor): 8.2 ± 1.6 nM
Kd (type 1 collagen): 257 nM
B1: Recombinant human full-length ADAMTS13 (enzyme, UniProt Q76LX8 75-1427, looked up)
chain: AAGGILHLELLVAVGPDVFQAHQEDTERYVLTNLNIGAELLRDPSLGAQFRVHLVKMVILTEPEGAPNITANLTSSLLSVCGWSQTINPEDDTDPGHADLVLYITRFDLELPDGNRQVRGVTQLGGACSPTWSCLITEDTGFDLGVTIAHEIGHSFGLEHDGAPGSGCGPSGHVMASDGAAPRAGLAWSPCSRRQLLSLLSAGRARCVWDPPRPQPGSAGHPPDAQPGLYYSANEQCRVAFGPKAVACTFAREHLDMCQALSCHTDPLDQSSCSRLLVPLLDGTECGVEKWCSKGRCRSLVELTPIAAVHGRWSSWGPRSPCSRSCGGGVVTRRRQCNNPRPAFGGRACVGADLQAEMCNTQACEKTQLEFMSQQCARTDGQPLRSSPGGASFYHWGAAVPHSQGDALCRHMCRAIGESFIMKRGDSFLDGTRCMPSGPREDGTLSLCVSGSCRTFGCDGRMDSQQVWDRCQVCGGDNSTCSPRKGSFTAGRAREYVTFLTVTPNLTSVYIANHRPLFTHLAVRIGGRYVVAGKMSISPNTTYPSLLEDGRVEYRVALTEDRLPRLEEIRIWGPLQEDADIQVYRRYGEEYGNLTRPDITFTYFQPKPRQAWVWAAVRGPCSVSCGAGLRWVNYSCLDQARKELVETVQCQGSQQPPAWPEACVLEPCPPYWAVGDFGPCSASCGGGLRERPVRCVEAQGSLLKTLPPARCRAGAQQPAVALETCNPQPCPARWEVSEPSSCTSAGGAGLALENETCVPGADGLEAPVTEGPGSVDEKLPAPEPCVGMSCPPGWGHLDATSAGEKAPSPWGSIRTGAQAAHVWTPAAGSCSVSCGRGLMELRFLCMDSALRVPVQEELCGLASKPGSRREVCQAVPCPARWQYKLAACSVSCGRGVVRRILYCARAHGEDDGEEILLDTQCQGLPRPEPQEACSLEPCPPRWKVMSLGPCSASCGLGTARRSVACVQLDQGQDVEVDEAACAALVRPEASVPCLIADCTYRWHVGTWMECSVSCGDGIQRRRDTCLGPQAQAPVPADFCQHLPKPVTVRGCWAGPCVGQGTPSLVPHEEAAAPGRTTATPAGASLEWSQARGLLFSPAPQPRRLLPGPQENSVQSSACGRQHLEPTGTIDMRGPGQADCAVAIGRPLGEVVTLRVLESSLNCSAGDMLLLWGRLTWRKMCRKLLDMTFSSKTNTLVVRQRCGRPGGGVLLRYGSQLAPETFYRECDMQLFGPWGEIVSPSLSPATSNAGGCRLFINVAPHARIAIHALATNMGAGTEGANASYILIRDTHSLRTTAFHGQQVLYWESESSQAEMEFSEGFLKAQASLRGQYWTLQSWVPEMQDPQSWKGKEGT
